Experiments:
mammalian cells = assay: Arrayed SSAP library screening, cell viability by live cell counts via flow cytometry; assay type: cell-based
In short: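 Each SSAP plasmid transfected in duplicate (~50% efficiency), with RecT SSAP as positive and Flag-HA as negative control. After three days, mKate-positive cells and viability by flow-cytometric live cell counts were quantified to gauge SSAP fitness effects.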

[1] = tested on: endogenous genomic loci (DYNLT1, HSP90AA1, AAVS1, ACTB) in HEK293T cells; assay: Kilobase mKate knock-in assay in HEK293T cells (flow cytometry); assay type: cell-based, human; conditions: for knock-in editing activity with dCas9, comparison of SSAPs: dCas9, MS2-MCP
Procedure: Transfection HEK293T cells were seeded into 96-well plates (Corning) 12-24 hours prior to transfection at a density of 30,000 cells/well, and 250 ng of total DNA was transfected per well. HeLa and HepG2 cells were seeded into 48-well plates (Corning) one day prior to transfection at a density of 50,000 and 30,000 cells/well respectively, and 400 ng of total DNA was transfected per well. Transfections were performed with Lipofectamine 3000 (Life Technologies) following the manufacturer's instructions.
(§1) Fluorescence-activated cell sorting (FACS) mKate knock-in efficiency was analyzed on a CytoFLEX flow cytometer (Beckman Coulter; Stanford Stem Cell FACS Core). 72 hours after transfection, cells were washed once with PBS and dissociated with TrypLE Express Enzyme (Thermo Fisher Scientific). Cell suspension was then transferred to a 96-well U-bottom plate (Thermo Fisher Scientific) and centrifuged at 300×G for 5 minutes. After removing the supernatant, pelleted cells were resuspended with 50 μl 4% FBS in PBS, and cells were sorted within 30 minutes of preparation.
HEK293T, Hela, HepG2 and U2OS cells were seeded into 96-well plates (Corning) 12-24 hours prior to transfection at a density of 30,000 cells/well, and 250 ng of total DNA was transfected per well. Cells were transfected with Lipofectamine 3000 (Life Technologies) following the manufacturer's instructions when the cell are ˜70% confluence. In brief, we used 250 ng total DNA, 0.4 ul Lip3000 reagent, mixed with 10 ul of Opti-MEM per well. For the 250 ng DNA, we used 160 ng of dCas9-SSAP guide RNA plasmids (for double sgRNAd design, use equal amount of the two guide RNA plasmids, e.g., 80 ng each), 60 ng of pMCP-RecT or GFP control plasmid (addgene #64539) and 30 ng of PCR template DNA (the PCR primer could be found in Table 7, the template sequence could be found in Supplementary Sequences). Three days later, the cells were analyzed using FACS.
as §1, with “mKate” for “Fluorescence-activated cell sorting (FACS) mKate”, “transfection or 96 hours after electroporation,” for “transfection,”, “twice” for “once”, “300 g” for “300×G”, “analyzed” for “sorted”, “after” for “of”

DYNLT1 locus = assay: mKate knock-in gene-editing assay, RecE/RecT homologs, DYNLT1 locus; assay type: cell-based, human; conditions: HEK293 cells, MCP fusion, n=3
In short: (§2)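 RecE/RecT homologs from 15 microbial species, codon-optimized and each fused via E-XTEN linker to MCP with NLS, tested for mKate knock-in. Cells transfected by Lipofectamine 3000 (HEK293T 250 ng DNA/well; HeLa, HepG2 400 ng); knock-in efficiency measured by flow cytometry 72 h post-transfection.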

[2] = tested on: endogenous genome targets (ACTB, HSP90AA1); assay: Arrayed SSAP library screening, mKate knock-in assay (editing efficiency); assay type: cell-based; conditions: average of HSP90 and ACTB, 3 days after transfection
In short: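 Mammalian cells in duplicate were transfected with SSAP-encoding plasmids, with about 50% transfection efficiency. mKate knock-in positive cells and viability, by flow-cytometric live counts, were quantified three days later. RecT SSAP served as positive control and Flag-HA plasmid as negative control.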

HSP90AA1 locus = assay: mKate knock-in gene-editing assay, RecE/RecT homologs, HSP90AA1 locus; assay type: cell-based, human; conditions: HEK293 cells, MCP fusion, n=3
In short: as §2

B1: EcRecT: Escherichia coli RecT SSAP; SEQ ID NO: 171 (Tables 8, 9), SEQ ID NO: 9; positive control in Table 9 (protein)
chain: MTKQPPIAKADLQKTQGNRAPAAIKNNDVISFINQPSMKEQLAAALPRHMTAERMIRIATTEIRKVPALGNCDTMSFVSAIVQCSQLGLEPGSALGHAYLLPFGNKNEKSGKKNVQLIIGYRGMIDLARRSGQIASLSARVVREGDEFNFEFGLDEKLIHRPGENEDAPVTHVYAVARLKDGGTQFEVMTRKQIELVRSQSKAGNNGPWVTHWEEMAKKTAIRRLFKYLPVSIEIQRAVSMDEKEPLTIDPADSSVLTGEYSVIDNSEE
Mammalian cells
  Cell Viability (Average, two targets): 0.8651
[1]; PCP no-recruitment control
  activity in no-recruitment control: efficiency increases in a recruitment-dependent manner
[1]; SSAP candidate screen, HSP90AA1, DYNLT1, ACTB, human cells
  genomic knock-in efficiency of kilobase cassette, dCas9 editing: ≤ 6%
[1]; human cells
  knock-in editing activity with dCas9, comparison of SSAPs: highest efficiency for dCas9 editing
[1]; human cells, listed as RecT
  knock-in editing activity with dCas9, comparison of SSAPs: higher knock-in editing activities relative to other SSAPs
[1]; five genomic sites (EMX1, VEGFA, HSP90AA1, DYNLT1, AAVS1), wtCas9
  HDR / knock-in efficiency enhancement: significantly enhanced HDR in all cases
[1]; template bearing 600-800 bp total HA, without selection
  HDR efficiency for kb-scale knock-in: over 10%
DYNLT1 locus
  Mean mKate+ (%), DYNLT1: 9.9467%
[2]; fold over negative control (Flag_HA)
  Editing Efficiency (Normalized, Average, two targets): 3.807
[2]; percent of mKate knock-in
  Editing Efficiency (Absolute, Average, two targets): 9.4225
HSP90AA1 locus
  Mean mKate+ (%), HSP90AA1: 6.5467%
